Assay results from article PMC2797330.

Target: CD4 on uninfected CEM-4 cells (human (endogenous in CEM-T4)) (UniProt P01730)
Assay: flow cytometry on cells; uninfected CEM-4 cells incubated 2 h at 4°C with gp120MN (0.24 µg/ml), washed; bound gp120 detected with HIVIG (10 µg/ml) and anti-human secondary antibody; % of cells fluorescing

Substance: recombinant gp120MN (natural protein)
- % of cells positive (gp120 bound to cells, detected with HIVIG): 96.2 % positive
